Measurements reported in PMC11224324.
One block for each substance: values may come before it.

Experiments:
[1] = target: REC_(hHK3), REC-1 domain of hybrid histidine kinase hHK3 (group III, ortholog of Nik1) from Chaetomium thermophilum (Chaetomium thermophilum); experiment: SEC-MALS; 20 µg of protein injected on PROTEIN KW-403 4F (Shodex); 50 mM Hepes pH 7, 150 mM NaCl; 0.35 ml/min; without and with PAM or BeF3-
[2] = target: Ct_HPt, histidine phosphotransfer protein from Chaetomium thermophilum (residues 9-175), Streptag removed (Chaetomium thermophilum)
Ct_HPt, histidine phosphotransfer protein from Chaetomium thermophilum (residues 9-175), Streptag removed (Chaetomium thermophilum), sequence (main, as listed by the source): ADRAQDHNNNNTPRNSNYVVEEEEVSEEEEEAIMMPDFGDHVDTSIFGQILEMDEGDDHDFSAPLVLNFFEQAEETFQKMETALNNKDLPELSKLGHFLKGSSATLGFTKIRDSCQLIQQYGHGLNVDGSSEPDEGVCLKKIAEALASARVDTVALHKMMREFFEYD

[3] = target: Histag-Ct_HPt (residues 9-175), labelled with Red-Tris NTA dye (Chaetomium thermophilum); experiment: MST; Histag-Ct_HPt labelled with Red-Tris NTA dye held constant; REC-1 domain in sixteen two-fold dilutions from 1 mM (0.32 mM for REC_hHK6); PBS + 0.05% Tween-20; medium MST power; hyperbolic fit, 1:1 model; mean of two titrations
[4] = target: REC_(hHK6), REC-1 domain of hybrid histidine kinase hHK6 (group VI, ortholog of Sln1) from Chaetomium thermophilum (Chaetomium thermophilum); experiment: SEC-MALS; 20 µg of protein injected on PROTEIN KW-403 4F (Shodex); 50 mM Hepes pH 7, 150 mM NaCl; 0.35 ml/min; without and with PAM or BeF3-

- stoichiometry N [1]: 3
Substance: REC_(hHK3), REC-1 domain of hybrid histidine kinase hHK3 (group III, ortholog of Nik1) from Chaetomium thermophilum (domain or fragment)

- phosphorylated Ct HPt (Ct HPt~P) on native gel after 30 min with REC-1 domain pre-phosphorylated with PAM (control of Ct HPt with PAM alone ~15%; none with AcP) [2]: 35%
Substance: REC_(hHK4), REC-1 domain of hybrid histidine kinase hHK4 (group IV) from Chaetomium thermophilum (domain or fragment)

- Kd [3]: 94 µM
Substance: REC_(hHK5), REC-1 domain of hybrid histidine kinase hHK5 (group V) from Chaetomium thermophilum (domain or fragment)

- stoichiometry N [4]: 2
Substance: REC_(hHK6), REC-1 domain of hybrid histidine kinase hHK6 (group VI, ortholog of Sln1) from Chaetomium thermophilum (domain or fragment)

- phosphorylated Ct HPt (Ct HPt~P) on native gel after 30 min with REC-1 domain pre-phosphorylated with PAM (control of Ct HPt with PAM alone ~15%; none with AcP) [2]: 35%
Substance: REC_(hHK11), REC-1 domain of hybrid histidine kinase hHK11 (group XI) from Chaetomium thermophilum (domain or fragment)
